Data from PMC6764022 (ACS Nano, 2019).
Bridges are numbered along the chain shown (N, C = ends). Roman numbers before positions name the chains, in order. Where no end group is shown, it is not given here. [ ]: non-standard residue; d: D form. Lys(N3) = [N-]=[N+]=NCCCC[C@H](N)C(=O)O

Columns and labels:
[1] = Sedimentation equilibrium analytical ultracentrifugation (AUC); assay type: physicochemical; details: PBS, 20 °C; for Oligomeric state (Table S3), reduced / MWAUC (Table S3), reduced: 10 fold excess of TCEP; for Oligomeric state (Table S3), reduced / MWAUC (Table S3), reduced / oligomeric state by AUC, in words / Oligomeric state (Table S3): 55 μM; for MWAUC (Table S3), reduced: 280 nm (235 nm for the KE peptides); for MWAUC (Table S3): 55 μM each, 44–60 krpm, single ideal species, 280 nm (235 nm for CC-Di-KE), performed once, 99% confidence limits in separate column; for Oligomeric state (Table S3): single run
[2] = CD spectra and thermal unfolding; assay type: physicochemical; details: 5 °C, 50 μM, neutral pH (PBS pH 7.4)
Experimental: Figure 1 Biophysical characterization of the coiled-coil heterodimer formed between charge-neutral peptides CC-Di-EK and CC-Di-KE. (a) CD spectra recorded at 5 °C and (b) thermal unfolding (filled symbols, solid line) and refolding (open symbols, dashed line) profiles, monitored through the CD signal at 222 nm, of the individual peptides CC-Di-EK (red, circles) and CC-Di-KE (blue, squares) and of an equimolar mixture of CC-Di-EK:KE (purple, triangles). The average of the spectra of the individual peptides is shown in black (no symbols). […] Representative data from a minimum of three replicates are shown. Conditions: each peptide 50 μM in PBS (pH 7.4), 1 mm path length quartz cuvette. […]
(§1) Exceptions were CC-Di-EK-Z and Z-CC-Di-KE, the masses of which were confirmed by infusing sample from an Advion Nanomate Triverser (Nanospray source) at 1.4 kV into a Waters Synapt G2S IMS Q -TOF mass spectrometer. Peptide purity was determined to be >95% using a JACSO HPLC system set up with an analytical reverse phase Phenomenex Kinete x C18 column (5  µM particle size; 100 Å pore size; 100 x 4.6 mm) running linear gradients of buffer B vs. buffer A.
(§2) Peptide Concentration determinations. Peptide concentrations were determined in H 2O by UV-vis absorption at 280 nm on a Nanodrop 2000 (Thermo Scientific) using the following extinction coefficients: […]

ssDNA tags = test: CD test of interaction of peptides with ssDNA tags; assay type: binding; details: CD spectra (Figure S6a,b)
Excerpt: Peptide modelling. Parametric models for all six combinations of CC-Di-EK and CC-Di-KE as hetero and homodimeric parallel and antiparallel coiled coils were generated using ISAMBARD (https://github.com/woolfson -group/isambard).1 These were optimized for BUDE Interaction Energy in ISAMBARD using a genetic algorithm which generated 30,000 models per combination over 3 0 generations with 1,000 models in each. To ensure that we generated useful models, we restricted geometric parameters to values consistent with coiled -coil dimers. For both the parallel and antiparallel […]
z shift = 0 ± 5 Å. Optimizations were repeated three times for each combination.
Peptide purification. […]
as §1, §2

[3] = biological target: the molecule itself; test: counting of free and bound DNA origami nanostructures in electron micrographs (TEM); peptides displayed on DNA origamis A and B through oligonucleotide tags; gel-purified An and Bn mixed, total monomer concentrations 0.25-2.4 nM; background of random coincidences subtracted; Kd from the slope of a linear fit through the origin; additional systematic error of approximately 20%
[4] = biological target: T1, B1: DNA origami B decorated with one β-CC-Di-KE (azidonorleucine (Z) at the N-terminus, joined to oligonucleotide tag β, which is hybridised to a handle of DNA origami B); test: as above; details: both partners purified
T1 chain: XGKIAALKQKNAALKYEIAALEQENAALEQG

[5] = biological target: the molecule itself; test: AUC; sedimentation equilibrium of the disulfide-linked heterodimers, 55 µM in PBS, 20 °C, 24-39 krpm in 3 krpm steps (colour key of Figure S3 o, p), fits to a single ideal species
[6] = biological target: the molecule itself; test: AUC; sedimentation equilibrium, 55 µM of each peptide in PBS, 20 °C, with TCEP reducing agent (10-fold excess; for the pair 5-fold relative to total peptide), fits to a single ideal species
CC-Di-KE = biological target: T2, CC-Di-KE (N-terminal acetylation (methods, said of the peptides in general)); test: circular dichroism thermal unfolding, concentration dependence of TM; Kd for heterodimerization estimated from the concentration dependence of the TM of free peptides in solution; details: both partners purified
T2 chain: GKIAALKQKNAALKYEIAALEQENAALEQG

[7] = biological target: the molecule itself; test: AUC; sedimentation equilibrium, 55 µM of each peptide in PBS pH 7.4, 20 °C, 44-60 krpm, fits to a single ideal species

## Ac-CGG EIAALEQ ENAALEQ KIAALKW KNAALKQ G-NH2 (Ac-CGGEIAALEQENAALEQKIAALKWKNAALKQG-NH2) [C-CC-Di-EK, N-terminally Cys-labelled CC-Di-EK]
[1]
  Oligomeric state (Table S3), reduced: 1.96 x monomer
  MWAUC (Table S3), reduced: 6683 Da
  oligomeric state by AUC, in words: exists as a dimer in solution even under reducing conditions

## Ac-G KIAALKQ KNAALKY EIAALEQ ENAALEQ GC-NH2 (Ac-GKIAALKQKNAALKYEIAALEQENAALEQGC-NH2) [CC-Di-KE-C, CC-Di-KE with C-terminal Cys]
[1]
  Oligomeric state (Table S3), reduced: 0.92 x monomer
  MWAUC (Table S3), reduced: 3062 Da

## Ac-G EIAALEQ EIAALEQ KNAALKW KIAALKQ G-NH2 (Ac-GEIAALEQEIAALEQKNAALKWKIAALKQG-NH2) [CC-Di-EN4, 4-heptad coiled-coil peptide withone asparagine]
[1]
  MWAUC (Table S3): 6079 Da
  Oligomeric state (Table S3): 1.87 x monomer

## Ac-G KIAALKQ KNAALKY EIAALEQ ENAALEQ G-NH2 (Ac-GKIAALKQKNAALKYEIAALEQENAALEQG-NH2) [CC-Di-KE, charge-neutral coiled-coil peptide, partner of CC-Di-EK]
[2]
  folding state by CD: either largely or fully unfolded
[1]
  MWAUC (Table S3): 3096 Da
  Oligomeric state (Table S3): 0.96 x monomer
  oligomeric state by AUC, in words: monomers
ssDNA tags
  interaction with ssDNA tags: no interaction

## Ac-G LEQ EIAALEQ KNAALKW KIAALKQ G-NH2 [CC-Di-EN3.5, 3.5-heptad coiled-coil peptide]
[1]
  MWAUC (Table S3): 2982 Da
  Oligomeric state (Table S3): 1.04 x monomer

## Ac-G EIAALEQ KNAALKW KIAALKQ G-NH2 (Ac-GEIAALEQKNAALKWKIAALKQG-NH2) [CC-Di-EN3, 3-heptad coiled-coil peptide]
[1]
  MWAUC (Table S3): 2369 Da
  Oligomeric state (Table S3): 0.95 x monomer

## Ac-CGG KIAALKQ KNAALKY EIAALEQ ENAALEQ G-NH2 (Ac-CGGKIAALKQKNAALKYEIAALEQENAALEQG-NH2) [C-CC-Di-KE, CC-Di-KE with N-terminal Cys]
[1]
  Oligomeric state (Table S3), reduced: 0.92 x monomer
  MWAUC (Table S3), reduced: 3126 Da

## Ac-G EIAALEQ ENAALEQ KIAALKW KNAALKQ G-NH2 (Ac-GEIAALEQENAALEQKIAALKWKNAALKQG-NH2) [CC-Di-EK, charge-neutral coiled-coil peptide, four heptads, asparagines at two a sites]
[2]
  folding state by CD: either largely or fully unfolded
[1]
  MWAUC (Table S3): 3274 Da
  Oligomeric state (Table S3): 1.00 x monomer
  oligomeric state by AUC, in words: monomers
ssDNA tags
  interaction with ssDNA tags: no interaction

## Ac-G EIAALEQ ENAALEQ KIAALKW KNAALKQ GC-NH2 (Ac-GEIAALEQENAALEQKIAALKWKNAALKQGC-NH2) [CC-Di-EK-C, CC-Di-EK with C-terminal Cys]
[1]
  Oligomeric state (Table S3), reduced: 1.04 x monomer
  MWAUC (Table S3), reduced: 3474 Da

## Ac-G EIAALEQ ENAALEQ KIAALKW KNAALKQ GC-NH2 | Ac-G KIAALKQ KNAALKY EIAALEQ ENAALEQ GC-NH2 (disulfide) [CC-Di-EK-C | CC-Di-KE-C, obligate heterodimer linked by disulfide via both C-termini]
[1]; 24–39 krpm (Figure S3 o, p)
  Oligomeric state (Table S3), disulfide-linked heterodimer: 1.00 x obligate dimer
[1]; 24–39 krpm (Figure S3 o, p), 280 nm
  MWAUC (Table S3), disulfide-linked heterodimer: 6695 Da

B1: B3: DNA origami B decorated with three β-CC-Di-KE (other)
chain: [Lys(N3)]GKIAALKQKNAALKYEIAALEQENAALEQG-NH2
modifications: also: tag β hybridised to handle of DNA origami B, three copies per origami
[3]
  Kd: 20 ± 3 nM

B2: A1: DNA origami A decorated with one CC-Di-EK-α (other)
chain: GEIAALEQENAALEQKIAALKWKNAALKQG[Lys(N3)]-NH2
modifications: also: tag α hybridised to handle of DNA origami A, one copy per origami
[4]
  Kd: 130 ± 20 nM

B3: CC-Di-EK-C disulfide-linked to C-CC-Di-KE (opposite ends) (complex)
peptide 1: Ac-GEIAALEQENAALEQKIAALKWKNAALKQGC-NH2
peptide 2: Ac-CGGKIAALKQKNAALKYEIAALEQENAALEQG-NH2
modifications: disulfide I:31-II:1
[5]
  stoichiometry N: 2.6 x obligate dimer

B4: C-CC-Di-EK (peptide)
peptide: Ac-CGGEIAALEQENAALEQKIAALKWKNAALKQG-NH2
[6]
  stoichiometry N: 1.96 x monomer

B5: CC-Di-EK (peptide)
chain: Ac-GEIAALEQENAALEQKIAALKWKNAALKQG-NH2
CC-Di-KE
  Kd: 102 ± 26 nM

B6: CC-Di-EN4 (peptide)
peptide: Ac-GEIAALEQEIAALEQKNAALKWKIAALKQG-NH2
[7]
  stoichiometry N: 1.87 x monomer
